According to patent US20220289837A1 (VIB VZW, published 2022):

Columns and labels:
[1] = target: T1, 2PT-NBD1 (human CFTR nucleotide-binding domain 1, residues 387-646, with S492P, A534P, I539T) (human, UniProt P13569 388-646, biotinylated for the ELISA (sites not given)); assay: ITC, nanobody titrated into 2PT-NBD1 at 20 °C, one-site model
T1 construct: N-terminal His6-SUMO tag removed with Ulp1; In the T2a-T4 and T27 crystals the domain was cut by papain or subtilisin
Method: (§1) Isothermal titration calorimetry (ITC) was used to characterize the thermodynamic parameters of the binding (FIG. 1e and FIG. 9). […] These KD values are similar to those measured for other in vivo matured camelid heavy-chain antibodies interacting with their ligands^{[20]}. The thermodynamic parameters of the interaction of nanobodies with 2PT-NBD1 were determined based on these ITC measurements (FIG. 1e and FIG. 9).
(§2) Interactions between nanobodies and 2PT-NBD1 was carried out on NanoITC system (TA Instruments) in 0.165 ml cells at 20° C., 300 rpm syringe stirring. Proteins were extensively dialyzed in 20 mM Hepes buffer pH 7.5, 150 mM NaCl, 10% (w/v) glycerol, 10% (w/v) ethylene glycol, 2 mM ATP and 3 mM MgCl₂ for 16 h at 4° C. Heat of dilution from control experiments of each nanobody titrated into buffer was subtracted from the titration into 2PT-NBD1. Data were integrated analyzed with Origin 7.0 software (Origin Lab Corp.).

[2] = target: T2, Purified human wt-CFTR (His10-SUMO*-CFTRFLAG-EGFP), PKA phosphorylated (human, UniProt P13569 1-1480, PKA phosphorylated (sites not given)); assay: ELISA, purified wt-CFTR immobilised on nickel-coated plate, nanobody titrated
T2 construct: Expressed in HEK293 cell line D165, purified on NiNTA in DMNG detergent; used for the full-length CFTR ELISA and the ATPase assays; also called FL-CFTR; full-length CFTR; not shown: N-terminal His10-SUMO* tag; FLAG tag and enhanced green fluorescent protein (EGFP)
T2 sequence (P13569 whole entry): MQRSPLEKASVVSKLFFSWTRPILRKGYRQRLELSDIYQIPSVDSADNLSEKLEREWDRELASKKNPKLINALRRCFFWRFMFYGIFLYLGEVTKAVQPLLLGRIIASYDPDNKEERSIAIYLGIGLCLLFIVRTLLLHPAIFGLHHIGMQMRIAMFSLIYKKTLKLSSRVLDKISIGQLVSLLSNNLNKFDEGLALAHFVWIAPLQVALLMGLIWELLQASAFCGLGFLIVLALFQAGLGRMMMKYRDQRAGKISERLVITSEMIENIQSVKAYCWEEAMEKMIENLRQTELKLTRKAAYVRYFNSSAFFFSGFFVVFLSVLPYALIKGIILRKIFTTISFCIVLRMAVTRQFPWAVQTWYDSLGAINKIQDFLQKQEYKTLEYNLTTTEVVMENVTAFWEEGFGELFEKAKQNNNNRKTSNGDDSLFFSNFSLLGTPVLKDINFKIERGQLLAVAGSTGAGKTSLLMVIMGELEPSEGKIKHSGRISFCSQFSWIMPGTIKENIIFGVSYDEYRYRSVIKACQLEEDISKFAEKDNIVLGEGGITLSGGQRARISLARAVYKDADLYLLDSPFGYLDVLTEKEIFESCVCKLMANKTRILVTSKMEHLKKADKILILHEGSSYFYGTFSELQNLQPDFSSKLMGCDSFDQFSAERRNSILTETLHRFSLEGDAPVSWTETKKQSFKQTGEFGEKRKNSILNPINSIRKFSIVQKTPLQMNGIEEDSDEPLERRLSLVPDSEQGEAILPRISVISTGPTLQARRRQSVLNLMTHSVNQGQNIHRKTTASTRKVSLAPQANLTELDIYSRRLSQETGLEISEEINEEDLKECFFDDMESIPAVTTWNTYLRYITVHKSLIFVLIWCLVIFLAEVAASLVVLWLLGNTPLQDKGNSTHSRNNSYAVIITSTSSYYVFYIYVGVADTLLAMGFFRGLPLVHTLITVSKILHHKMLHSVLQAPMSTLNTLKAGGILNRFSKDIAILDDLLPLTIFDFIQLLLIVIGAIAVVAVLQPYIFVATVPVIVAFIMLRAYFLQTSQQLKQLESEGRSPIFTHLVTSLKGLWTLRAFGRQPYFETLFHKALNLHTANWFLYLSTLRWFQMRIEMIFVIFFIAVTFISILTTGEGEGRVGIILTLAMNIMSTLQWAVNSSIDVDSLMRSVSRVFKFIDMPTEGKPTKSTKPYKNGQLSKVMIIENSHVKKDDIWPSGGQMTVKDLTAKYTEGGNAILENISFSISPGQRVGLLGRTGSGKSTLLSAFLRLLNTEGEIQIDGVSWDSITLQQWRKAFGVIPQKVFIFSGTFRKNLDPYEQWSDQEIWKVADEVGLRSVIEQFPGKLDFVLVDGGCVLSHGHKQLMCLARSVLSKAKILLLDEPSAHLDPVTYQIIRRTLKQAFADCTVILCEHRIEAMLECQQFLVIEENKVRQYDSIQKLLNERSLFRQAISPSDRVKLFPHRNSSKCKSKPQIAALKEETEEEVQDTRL
Excerpt: Quantification of at least 3 independent experiments (±SEM). (g) Immunoblot of CFTR from solubilized BHK-21 cells pulled-down with His-tagged nanobodies, including a non-CFTR nanobody as a control. Eluted nanobodies-CFTR complexes were separated by SDS-PAGE and presence of CFTR was detected with mAb 596 antibody after immunoblotting. Arrows indicate the mature (band C) and immature (band B) forms of CFTR. Representative of at least 3 independent experiments. (FIG. 4H) Flow cytometry analysis of nanobodies T2a, T8 and G3a on BHK-21 cells expressing 2PT-F508del showing increased labelling for T2a and G3a, but not T8. (FIG. 4I) Quantification of data illustrated in […]. Average of 3 independent experiments (±SEM).
Strep-Tactin XT coated microplate (iba Life Science) was coated overnight at 4° C. with Twin-Strep-tagged nanobodies (5 μg/ml). […] CFTR binding was detected with monoclonal antibodies L12B4, MM13, 154, 660, 570, 596 specific to CFTR obtained from the CFTR Antibody Distribution Program (http://cftrantibodies.web.unc.edu/available-antibodies)46 and then anti-mouse-HRP antibody (Millipore, catalogue number: AP308P, 0.5 μg/ml) for 1 h 30 min at 4° C. […] Nanobody binding was detected with Myc-tag specific antibody (Sigma, catalogue number: C3956, 0.5 μg/ml) and then anti-rabbit-HRP antibody (Cell Signaling, catalogue number: 7074S, 1:1000 dilution) for 1 h 30 min at 4° C. […]

[3] = target: T1, 2PT-NBD1 (human CFTR nucleotide-binding …); assay: isothermal titration calorimetry, nanobody titrated into 2PT-NBD1 at 20 °C, one-site model
Method: as §1, §2

T1 sequence (P13569 388-646 V470M/S492P/A534P/I539T limits assumed): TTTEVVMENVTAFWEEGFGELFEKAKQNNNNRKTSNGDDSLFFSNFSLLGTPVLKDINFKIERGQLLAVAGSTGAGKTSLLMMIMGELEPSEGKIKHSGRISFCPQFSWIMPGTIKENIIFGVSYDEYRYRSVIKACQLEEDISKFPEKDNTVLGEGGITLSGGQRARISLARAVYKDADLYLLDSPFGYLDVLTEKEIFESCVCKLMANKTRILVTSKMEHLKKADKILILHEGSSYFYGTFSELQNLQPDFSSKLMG

ΔG [1] | ΔH [1] | EC50 (read off the curve) [2] | Kd [3] | Binder
-9.7 kcal/mol | -13.8 kcal/mol | ~200 nM | 54 nM | Nanobody T2a (VHH, not shown: small tags and cut ends, Llama nanobody; also called Nb T2a; T2a Nb) VHH: QVQLQESGGGLVQAGGSLRLSCAASGSIFRIDAMGWYRQAPGKQRELVAHSTSGGSTDYADSVKGRFTISRDNAKNTVYLQMNSLKPEDTAVYYCNADVRTRWYASNNYWGQGTQVTVSS
-9.94 kcal/mol | -15.5 kcal/mol | ~300 nM | 39 nM | Nanobody T8 (VHH, not shown: small tags and cut ends, Llama nanobody; also called Nb T8; T8 Nb) VHH: QVQLQESGGGLVQPGGSLRLSCAASGSTSSINAMGWYRQAPGKQREPVAISSSGGDTRYAEPVKGRFTISRDNAQNKVYLQMNSLKPEDTAVYYCWLNWGRTSVNSWGQGTQVTVSS
